Source: a protein production outcome set (Wang et al. 2014)

Assay: label from the status in PepcDB records
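Note: failed if final PepcDB status was selected cloned or expressed and not failed if soluble or beyond.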

MSEEKNTAIDLKNLKAGGFIKERGKDLFTVRLRVPGGRLPVGRLKKIAEVAEKYGQGMVHLSVRQSVELININFRDFDAVVAELGEGTQKVASCGARVRVPTACGGCEYNPNGLVDTQKSALEVDEKLFGIPTGHHKFKVGFAGCPFDCPKSATNDVGFQGAVWPVLSADHCIGCGLCAKSCTEDAIAMGDNGKPLFIPANCLYCGDCLKVCPTEAWRAGKKGYTVRIGGKWGRRPLVGTLFAEFLPEDQVVDFIAAVLGWYQEKAEGQGRIRLGDVIRAQGPEALLARLRERFPAFVVNATIAPQAIATQVGKEKQAHDNRLEHHHHHH
protein production: not failed

MSEGNRSRSRLLPSLLGLLILLSGLALLAGGIKLASLGGSLYYLLAGIGLALSGLLLLLGKRAALGLYALVLFASTVWALWEVGLDWWQLVPRLALWFVFGLLLWLPWFRRPLLADGPAPLGTAALGVAVVLAGAAAVGSQFTNPGQIVGRIDRDSGMTSTAPAMPDGDWQAYGRTEFGDRYSPLKQITPANVGQLEEAWRIRTGDLPTADDPLELTNENTPLKVNGMLYACTAHSKVLALDPDTGAEIWRFDPQIQSPVGFKGFAHMTCRGVSYYDEEQYARSDVGAPPAALSEAGKAVAASCPRRLFLPTADARLIAINADNGKVCEDFGVKGAVDLTAGIGPFTPGGYYSTSPAAVTRNLVIIGGHVTDNESTNEPSGVIRAFDVHDGKLVWNWDSGNPDETEPLAPGKFYTRNSPNMWSLASVDEKLGQVYLPLGNQMPDQWGGNRTPGAEKFSAGLVALDLNTGKLRWNYQFTHHDLWDMDVGSQPTLLDLKTADGVKPALIAPTKQGSLYVLDRRDGTPIVPIREVPAPQGAVEGDHTAPTQARSDLNLLRPPLTERDMWGSSPFDQMLCRIQFRSLRYEGQYTPPSEQGSLIYPGNVGVFNWGGVSVDPVRQILFTSPNYMAFVSQMVPRDKVPSGSKREGETSGVQPNTGAPYAVIMHPFMSPIGLPCQAPSWGDVAGIDLTTAKVVWQHKNGTSRDNTPVPIGLTVGVPSMGGSITTAGGVAFLSGTLDQYLRAYDVKDGKQLWQARLPAGGQATPMSYTGKDGRQYVLIVAGGHGSFGTRMGDYIIAYALPRQ
protein production: failed

MSEGTLFVFTCDRPNGSSVIMCPGGGFLKTNLENEGIDFAEWFTKLGITYIVFKYRMPHGNPDVPEQDTRLALKVVREKFPEFCDKLGVMGASIGGYLATFSATLLPDDEKPDFQILMYPVVSVDDRLTHFPCRERMFGHSYSPDKMEQYSPIEHITSGTPAAFIVAAADDAVVSPLNGIMYAARLQKADIPISLHIYPAGGHGFGYNDSFVYKQEWLQELGEWLAKLLEHHHHHH
protein production: failed

MSEKPLISVLMPNYNSEKYLNEAIESILNQTYENFEFIILDDCSTDNSWKIIQEYAKKDKRINIFRNEKNLGRPKTYNRLLNMISNESFFFFFMGSDDVVKENMINIKLNYFNNFEEIDGIGNSIEYVDENLNFIKKREYPLTDRDIRKNFLIFNPISQGGMCLKSNLKNETFNEKYKVCLDYEIWTRLIDKGYTFENLKESLYLYRQQREQAKQKNLKMTLVNTVKIKSKYLFRPQYFSINAFLRFNLEILLLMLPKKLILWVFYKSL
protein production: failed

MSELNLSPDKLTVLLMGGSFGAGNIKETLDELLDTDRDFQILVITGKNESLKEKIEKKLMSRYHDKNVCVLGYTDKMNDILASIDVLVSKPGGLTTTEALLKDVPMIVPYYIPGQEEENLDFLSNCGAALRTTKKYNLSILLKVLIDDPSRLEMLKRNIKSIRKSNSAQNIANLILNIISGLEHHHHHH
protein production: failed

MSEMAGDSSTSEDKIHKPNRERNVSGELDVFEATRYFSDFNEPTTIEYSRIQIQKQSIVTENRQKRVHPETEEHLPKPRVVVIKPQKKEMTRGGGKKLTSFLNSLLRSAGLKKKSKSAPEVETPRVERMRRKSCVVTTHAADASPLTNAGAWSLNARRRSFDEKDLKKSDQKLNIRFCESLYSDQRVETKDPNAGDKNDVIGGCESDSSSESDLFELDLFAKSNP
protein production: failed

MSEPIPPFRYAPIVCSEQSTIVAEFVPEASGVREAGYQSEAELEAAFIKQLQGQAYEYLPITSEAALLANLRRQLEKLNKVTLSDAEWEGFFSTCIAGAHDGIVEKTARIQENHVQVLKRDDGTIKNMCLLDKVNIHNNTLQVMNQYAVEGARANRYDVTVLVNGLPMVHVELKRRGVDIREAFNQINRYQRDSFWAGSGLLDYVQLFVISNGTLTKYYSNTVRAGHVEEQSNKRSKSKTSNSFSFAIWWADAKNQPITELTSFTKTFFAKHSLLNVLTKYCVFNAKRKLLVMRPYQIVAAERILQRIVIATHQQQLGTVAAGGYIWHTTGSGKTLTSFKVAQLACGLGVIDKVLFVVDRKDLDYQTMREYESFQKGAANSNTSTAVLQRQLEDSDVHIIITTIQKLSRFVAKHKQHPVYGAHVVVIFDECHRSQFGDMHTKITRAFQRYHLFGFTGTPIFAENAGSTQNPMRRTTQQTFGDTLHTYTIVDAINDKTVLPFRIDYINTIKSQPNIKDKKVAAIDTERALLAPERIRQIVSYIREHFDQKTKRASIYRHEGQRLAGFNSLLATASIDAAKRYYAELMAQQKELPEARRLKVGLIYSVAANEGGGDGGLGEEEFETEGLDQESRNFLEAAIQDYNALFGTSFDTSADKFQNYYKDVSERLKKRKLDILIVVNMFLTGFDATTLNTLWVDKPLKAHGLIQAYSRTNRILNSVKSYGNIVSFRNLEQETNEALALFGNKDAKGIVLLRPYAEYYKQYEERVGELMAAFPLGKAIVGEAAQKAFITLFGSILRLKNILTAFDDFGGQEILTEREFQDYQSLYLNLYAEFRSASAAEKESINDDVVFEIELIKQVEINVDFILLLVEQYVKKKGTGEDKDIRATIERAIHSSPSLRNKKELIEQFVDAVSMKAKVDAQWQAFVAVKQSQELEGIIAEENLNAEAAREFIGNAFRDGGIPAMGTAITKVLPPVSRFSKNNGHAAKKQAVLDKFATFFERYFGLV
protein production: failed

MSEQTSQYLSDSYVEETRFGFWFLRSHTWQHHVLRVAINDLRSLFDGELPRHPVLLDAGCGQGKSFQYLRQVFAPQRLIGLDADPHSLKLSAEEARRQQMQVELIGSDCATLELADASVDLLFCHQTFHHLVEQEKALAEFYRVLKPGGYLLFAESTEAYIDTWVIRWLFRHPMHVQKSAAQYLQMIRQQGFEFGPQNVSYPYLWWSRAKDFGLLERFGLRQPPPVGQREETLVNVVARKPLNPTVVEEGLPA
protein production: failed

MSESKEMVRGTFLITISILITKVLGVLFIIPFTALIGGQANMAPFTYAYAPYNIAIAIATAGVPLAASKYVAKYNALGAYKVSQKFYKSSFVVMSITGIVGFLVLYLLAPYIAELTLSRNTHGNNGWTVADITWIIRIISMVVIFIPVLATWRGIFQGYKSMGPTAVSEVTEQIARIVFILVGSYLTLNVFGGTVLQANGIATFAAAIGAIAGILTLWYYWIKRRKNIKKMIDSDTANLNVSYGKMYKEIIAYSIPFVIVSLNFPLFNLVDQFTHNGALNLVGVKPGLQDIFFNMLNMSTNKIVMIPTSLSAGFAVSLIPFITKTYEEGRYAEMHRQIRTSIGVLMFITVPASIGIMALAQPLFTVFYGFDPVVHGHDPNFDGSRLLFYYAPVAILISLLSVTASMLQGIDKQKLTVFIILGSVLIKLILNYPLIMLLHTPGAVLSTAIALLFAICCNFYILKKYANFKFSYSWIHLAKIILISIIMMIGVEVIFFILRLFLEPTRFNYLIIVAIGVIVGAIIYGGITIKTKLADEFLGDIPAKIRRKVKMLR
protein production: failed

MSEVEQFATIALISLTAFISPLIADKLRVPVVVLEIVLGMIFGVSFLNVIYASEWLSFLSLFGLIFLMFLAGLEIDADVVLKSGHLKRVVAFFALSLALSVALTALMGLNLFYAIILTNVAVGVVVSVLREIGLEKEDFGQLNIVTALVSDFSTMFLLSIYFITGYLQVAFAFLIILVFLAAYRFGKLVIWHFPDFISRWFSDEPSEIGVRGSLAIMILFVGLSSLLGVEAILGAFLAGVLLSITFRGGKKLYDKLYGMGFGFFIPIFFIKTGSELNITQAGEGIGFILLLLAVSVAVKGIPSLIFASNFGLRRAISMGMLQSTKLSLTIAGVAIGVSSGVITEFESTALVTFTIISCLLSPTLFRFLYPRYLPKTR
protein production: failed

MSEVNKKVQDGVDDYLEEEDFGQLLEAFDKSREEATTEGVIVEIKNDEVYVDIGKKSEGILALSEIQGDNSKLLFNVGDSIKVAVMGSRGGRSLLSHKKALRKEKVIEFIKNYQENQDDIFTVKVVGKNKGGLIVVDENDVEFFLPKSQYGFKETNNIIGKTFKVKIIKIDKDEQSIIVSRKKTLDDERRKRKELINNVAQQEDLIEGIVKKITTYGMFVDVGGVDGLVHYSEISYKGPVNPGTLYKEGDKVPVKVIKYDKERKHLSLSIKAALPDPWSEIKDTLDIGDTIKVIVSNIEPYGAFVDLGNDIEGFLHISEISWDKNIKNPKDYINKGQEIDVEVIEINPNERRLRVSLRNLLSRPFDEFMKSYKIADVVEGEITSVTSFGAFVKLGGIEGLLHNEDASWDRNDKCKDKFSQGDKIKVKIIKIDEENQKISLSTKELSSSPVQEYAKIHKVGDIVKGAIRDIKDFGVFVELSKNVDALIHKEDISTSMLENLKIGDDIEAAIVFIDEKKNRIRLSVKNLVRIKEREVLNEINNDDKVTLGDIIKDQLALEHHHHHH
protein production: not failed

MSEYEVLLATKRRTPPDSSAGRSSQIWRRAFGHWLQGRNGSSSLSNQNEPRPCRVRRNAGSHGPPVCIPFALALPPRMDVRLPSRLAPPLGAVLLCTLLMGGPPPTVASPAVLFPSADTTSPRARRLLIQGTTEAQLGDYEEAISHFEAALEQVPEAPVLLLALADAHEAQGALSTALFYARRAQTQGSPRPSPYRRLAEMQRAAGDPAAALRTYQQLLDHVPNANDAHRARAAIQADLGRTKGAIQSYEIYLQRADSPPIDVYRRLLSLYRKTGDKDGVETTLRTLVERRPTVRSYQRRLGEYYADEGRPRKALALLAPLGRQFPNDEALRRQVQRLARQTGQSIASPTQRAQSDSTRSQSASPDAPLRRARSMYDAATASSPPDTAQLRAAAGVLRDVLHQSPDTEAALSLQAELYQAWGRPEEAGRAMERLLDLTPRAPGRWVRTAQTYQRAHLYARAAGVAEEGFLLFPGHMPLARTAAFARLRTGDPAKARRHFQDALSLLGDSTGAAAEAVLHAGLGLAKSRLGRPREADDALKNARALAPQHPQVVRLYARSLARQDDRLDQALDLAEQAVENAPDSPSAHRALGQVQFRRDELEAARRHLRIALDAGGPSATLLERLGDVEAALGNDTAAQTYWQRALDRNPDRSSLREKLAVPANS
protein production: failed

MSFCKLVSFVLILHLLNSCLISCSSNDLSQIPKNFLSLAKREDFFDWMVGIRRRIHENPELGYEEVETSKLVKTELDKMGVSYKNPVAVTGVIGYVGTGHAPFVALRADMDALPIQEMVEWEHKSKIPGKMHACGHDAHTTMLLGAAKLLKEHQEELQEGGAGAKKIVEAGVLENVGAIFGLHVSNLLGLGQLSSREGLLMAGSGRFKATISGKGGHAALPQFAIDPVLAASNVILSLQHLVSREADPLDSQVVTVATFEGSDAFNVIPDSVTIGGTFRALLPKSFEQLKQRIVQVITTQASVNMCNATVDFLEDETPPFPPTVNNKTLHLFYKNVSVDMLGIENYVETLPVMVSEDFAFYQQAIPGHFSFVGMQNKSHSPMANPHSPFFEVNEELLPYGASLLASLATRYLLDSSSSPNKDEL
protein production: failed

MSFESNQLMPIAALRGGPGTPAADVLTAFALRRKAEGIDVVGVIVPPEDAGSGHQGHGHGEGHGGGHEGCECRSELIDIATGDRYAMHQDLGSGSQACNLNSSSLALAAGAVERAVARKPALVVLSRFGGQEAVRGGLMSAFQAAIAAGVPVACVVTPKAEDVWNDFAQGLSVSLPPEADALEAWWRDHARGRNAALEHHHHHH
protein production: failed

MSFIEKMIGSLNDKREWKAMEARAKALPKEYHHAYKAIQKYMWTSGGPTDWQDTKRIFGGILDLFEEGAAEGKKVTDLTGEDVAAFCDELMKDTKTWMDKYRTKLNDSIGRD
protein production: not failed

MSFKEEQVIKHHQDLANKSVSTFLLLGLDNSGKRKLSTSRTDGMMVVIVNHKTKTITLCSLLRDTFTKIYSQQYHGYQRIETAYTYGGDAAAVATVEHFLKLPIDYYVTLNWDGFIQAINDIGPLSVRVDRAFVGQNYWGHAVHFKAGLQEMNGARALAYARERHVDNDQYRGFRQQAVLYALLKRLNQGALVAKGSQIMGDVKGQVRTNMSEGDMLSLIKYRTVLKHYRVKRVTFQWRTFDTAGRSMVEVYPDSRQHTIAELQAAAGRRAPLEHHHHHH
protein production: failed
